Tests used:
Assay in all cases: holdup assay
Parameters in all cases: key: below the threshold = too weak to quantify, mostly under pKd 3.1 to 4
Settings in all cases: plain residues with an end cap or a label only (N-terminal biotin on a linker: ado-ado)
APBA2_2, Q99767 = biological target: T1, APBA2_2, Q99767
T1 sequence (Q99767 654-744, limits assumed, looked up): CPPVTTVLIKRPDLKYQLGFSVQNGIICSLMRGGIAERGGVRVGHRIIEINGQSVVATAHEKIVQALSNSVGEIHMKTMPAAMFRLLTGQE

DLG1_1, Q12959 = biological target: DLG1_1, Q12959
DLG4_1, P78352 = biological target: DLG4_1, P78352
DLG4_3, P78352 = biological target: DLG4_3, P78352
FRMPD2_1, Q68DX3 = biological target: FRMPD2_1, Q68DX3
FRMPD2_2, Q68DX3 = biological target: FRMPD2_2, Q68DX3
GRIP1_3, Q9Y3R0 = biological target: T2, GRIP1_3, Q9Y3R0
T2 sequence (Q9Y3R0 247-346, limits assumed, looked up): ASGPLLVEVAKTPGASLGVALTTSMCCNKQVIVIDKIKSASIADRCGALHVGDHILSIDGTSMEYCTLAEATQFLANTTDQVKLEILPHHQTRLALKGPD

GRIP2_5, Q9C0E4 = biological target: GRIP2_5, Q9C0E4
HTRA1, Q92743 = biological target: HTRA1, Q92743
HTRA4, P83105 = biological target: T3, HTRA4, P83105
T3 sequence (P83105 378-476, limits assumed, looked up): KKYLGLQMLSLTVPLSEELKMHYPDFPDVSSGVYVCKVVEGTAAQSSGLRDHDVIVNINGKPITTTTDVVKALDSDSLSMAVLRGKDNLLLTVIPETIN

IL16_1, Q14005 = biological target: IL16_1, Q14005
LDB3, O75112 = biological target: LDB3, O75112
LNX2_3, Q8N448 = biological target: T4, LNX2_3, Q8N448
T4 sequence (Q8N448 463-564, limits assumed, looked up): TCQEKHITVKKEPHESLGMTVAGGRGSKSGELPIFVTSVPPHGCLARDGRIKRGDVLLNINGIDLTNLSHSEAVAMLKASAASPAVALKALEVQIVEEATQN

LRRC7, Q96NW7 = biological target: T5, LRRC7, Q96NW7
T5 sequence (Q96NW7 1440-1537, limits assumed, looked up): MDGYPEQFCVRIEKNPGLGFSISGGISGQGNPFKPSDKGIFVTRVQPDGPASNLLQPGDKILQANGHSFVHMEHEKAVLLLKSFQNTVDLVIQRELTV

MAGI2_2, Q86UL8 = biological target: MAGI2_2, Q86UL8
MAGI2_3, Q86UL8 = biological target: MAGI2_3, Q86UL8
MAST1, Q9Y2H9 = biological target: MAST1, Q9Y2H9
MPDZ_5, O75970 = biological target: T6, MPDZ_5, O75970
T6 sequence (O75970 695-796, limits assumed, looked up): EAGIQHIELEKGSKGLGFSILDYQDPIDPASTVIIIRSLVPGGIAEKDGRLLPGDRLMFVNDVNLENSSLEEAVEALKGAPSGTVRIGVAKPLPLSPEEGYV

MPP6, Q9NZW5 = biological target: T7, MPP6, Q9NZW5
T7 sequence (Q9NZW5 125-219, limits assumed, looked up): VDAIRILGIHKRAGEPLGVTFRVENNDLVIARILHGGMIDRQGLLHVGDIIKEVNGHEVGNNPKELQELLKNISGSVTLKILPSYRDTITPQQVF

NHERF2_2, Q15599 = biological target: NHERF2_2, Q15599
PDLIM1, O00151 = biological target: PDLIM1, O00151
PICK1, Q9NRD5 = biological target: PICK1, Q9NRD5
PTPN3, P26045 = biological target: PTPN3, P26045
RAPGEF6, Q8TEU7 = biological target: T8, RAPGEF6, Q8TEU7
T8 sequence (Q8TEU7 525-625, limits assumed, looked up): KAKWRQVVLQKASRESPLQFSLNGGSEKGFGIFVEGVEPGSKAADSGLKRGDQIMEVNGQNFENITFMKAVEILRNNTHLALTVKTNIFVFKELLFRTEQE

SIPA1L2, Q9P2F8 = biological target: T9, SIPA1L2, Q9P2F8
T9 sequence (Q9P2F8 945-1036, limits assumed, looked up): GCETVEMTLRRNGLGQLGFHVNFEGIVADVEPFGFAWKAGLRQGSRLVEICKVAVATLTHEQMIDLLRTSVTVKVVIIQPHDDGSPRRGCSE

SNTB1, Q13884 = biological target: T10, SNTB1, Q13884
T10 sequence (Q13884 107-205, limits assumed, looked up): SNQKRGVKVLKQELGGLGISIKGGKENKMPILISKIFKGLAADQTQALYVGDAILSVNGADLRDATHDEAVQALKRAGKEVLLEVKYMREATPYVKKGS

TIAM2, Q8IVF5 = biological target: T11, TIAM2, Q8IVF5
T11 sequence (Q8IVF5 885-986, limits assumed, looked up): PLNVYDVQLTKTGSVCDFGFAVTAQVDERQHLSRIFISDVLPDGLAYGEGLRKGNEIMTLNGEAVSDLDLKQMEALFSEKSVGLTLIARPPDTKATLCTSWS

MAST1, Q9Y2H9, sequence (Q9Y2H9 962-1065): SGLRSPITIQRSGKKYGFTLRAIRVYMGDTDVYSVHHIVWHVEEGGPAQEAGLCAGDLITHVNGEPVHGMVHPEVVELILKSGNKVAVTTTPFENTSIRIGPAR
NHERF2_2, Q15599, sequence (Q15599 142-238): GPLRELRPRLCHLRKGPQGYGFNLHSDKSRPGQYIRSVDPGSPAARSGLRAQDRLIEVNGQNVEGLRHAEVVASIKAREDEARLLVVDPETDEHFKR
PTPN3, P26045, sequence (P26045 505-587): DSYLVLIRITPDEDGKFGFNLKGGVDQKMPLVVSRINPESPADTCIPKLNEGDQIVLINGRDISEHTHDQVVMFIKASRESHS
GRIP2_5, Q9C0E4, sequence (Q9C0E4 544-642): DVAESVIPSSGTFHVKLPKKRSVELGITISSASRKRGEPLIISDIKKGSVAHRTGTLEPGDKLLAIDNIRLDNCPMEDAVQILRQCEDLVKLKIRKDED
PDLIM1, O00151, sequence (O00151 1-87): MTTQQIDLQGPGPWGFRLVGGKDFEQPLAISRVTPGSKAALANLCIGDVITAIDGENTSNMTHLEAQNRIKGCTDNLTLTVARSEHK
LDB3, O75112, sequence (O75112 1-94): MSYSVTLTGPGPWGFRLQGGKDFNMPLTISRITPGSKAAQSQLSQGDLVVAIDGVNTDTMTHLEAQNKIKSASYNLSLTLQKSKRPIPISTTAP
IL16_1, Q14005, sequence (Q14005 210-306): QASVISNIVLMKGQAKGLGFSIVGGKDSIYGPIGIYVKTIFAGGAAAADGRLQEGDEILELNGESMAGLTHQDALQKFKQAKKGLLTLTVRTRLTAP
DLG4_3, P78352, sequence (P78352 306-403): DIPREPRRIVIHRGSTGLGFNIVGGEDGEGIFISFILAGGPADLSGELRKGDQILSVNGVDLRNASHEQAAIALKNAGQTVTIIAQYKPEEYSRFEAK
PICK1, Q9NRD5, sequence (Q9NRD5 17-115): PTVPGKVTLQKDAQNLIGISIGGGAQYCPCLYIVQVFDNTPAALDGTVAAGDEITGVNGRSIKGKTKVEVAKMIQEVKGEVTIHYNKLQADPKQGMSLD
MAGI2_3, Q86UL8, sequence (Q86UL8 600-682): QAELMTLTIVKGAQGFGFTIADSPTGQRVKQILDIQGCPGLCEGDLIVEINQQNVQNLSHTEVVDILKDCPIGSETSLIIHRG
FRMPD2_1, Q68DX3, sequence (Q68DX3 770-861): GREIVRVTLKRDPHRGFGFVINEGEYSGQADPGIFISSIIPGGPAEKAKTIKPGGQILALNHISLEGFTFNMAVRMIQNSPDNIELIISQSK
DLG4_1, P78352, sequence (P78352 62-152): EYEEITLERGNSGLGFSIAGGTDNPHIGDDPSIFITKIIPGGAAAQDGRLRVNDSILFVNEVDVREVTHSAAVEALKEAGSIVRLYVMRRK
MAGI2_2, Q86UL8, sequence (Q86UL8 410-522): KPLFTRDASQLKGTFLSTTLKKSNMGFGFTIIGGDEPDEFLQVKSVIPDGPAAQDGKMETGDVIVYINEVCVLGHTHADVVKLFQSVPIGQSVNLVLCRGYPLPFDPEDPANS
HTRA1, Q92743, sequence (Q92743 360-477): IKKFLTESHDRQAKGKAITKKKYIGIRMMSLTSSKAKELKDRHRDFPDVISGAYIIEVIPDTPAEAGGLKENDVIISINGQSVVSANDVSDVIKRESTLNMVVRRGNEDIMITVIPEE
FRMPD2_2, Q68DX3, sequence (Q68DX3 944-1038): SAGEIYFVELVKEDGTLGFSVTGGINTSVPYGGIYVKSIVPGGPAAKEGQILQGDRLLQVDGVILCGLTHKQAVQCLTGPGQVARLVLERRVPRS

Binder	pKd (APBA2_2, Q99767)	pKd (DLG1_1, Q12959)	pKd (DLG4_1, P78352)	pKd (DLG4_3, P78352)	pKd (FRMPD2_1, Q68DX3)	pKd (FRMPD2_2, Q68DX3)	pKd (GRIP1_3, Q9Y3R0)	pKd (GRIP2_5, Q9C0E4)	pKd (HTRA1, Q92743)	pKd (HTRA4, P83105)	pKd (IL16_1, Q14005)	pKd (LDB3, O75112)	pKd (LNX2_3, Q8N448)	pKd (LRRC7, Q96NW7)	pKd (MAGI2_2, Q86UL8)	pKd (MAGI2_3, Q86UL8)	pKd (MAST1, Q9Y2H9)	pKd (MPDZ_5, O75970)	pKd (MPP6, Q9NZW5)	pKd (NHERF2_2, Q15599)	other results
GCQGETEDVL [PTH2R, P49190]	below the threshold	below the threshold	3.51	below the threshold	below the threshold	below the threshold	below the threshold	below the threshold	4.14	below the threshold	below the threshold	below the threshold	below the threshold	below the threshold	below the threshold	below the threshold	3.92	below the threshold	3.91	4.03	pKd (PDLIM1, O00151): below the threshold; pKd (PICK1, Q9NRD5): 3.99; pKd (PTPN3, P26045): 3.78; pKd (RAPGEF6, Q8TEU7): below the threshold; pKd (SIPA1L2, Q9P2F8): below the threshold; pKd (SNTB1, Q13884): below the threshold; pKd (TIAM2, Q8IVF5): below the threshold
RALRASESGI [ADGRE5, P48960]	below the threshold	below the threshold	below the threshold	below the threshold	below the threshold	below the threshold	below the threshold	below the threshold	below the threshold	3.62	below the threshold	below the threshold	below the threshold	below the threshold	below the threshold	below the threshold	below the threshold	below the threshold	3.59	below the threshold	pKd (PDLIM1, O00151): below the threshold; pKd (PICK1, Q9NRD5): below the threshold; pKd (PTPN3, P26045): 4.13; pKd (RAPGEF6, Q8TEU7): below the threshold; pKd (SIPA1L2, Q9P2F8): below the threshold; pKd (SNTB1, Q13884): below the threshold; pKd (TIAM2, Q8IVF5): below the threshold
SRPRPDDLEI [GJA1, P17302]	below the threshold	below the threshold	below the threshold	below the threshold	below the threshold	below the threshold	below the threshold	below the threshold	below the threshold	below the threshold	below the threshold	below the threshold	below the threshold	below the threshold	below the threshold	below the threshold	below the threshold	below the threshold	3.62	below the threshold	pKd (PDLIM1, O00151): below the threshold; pKd (PICK1, Q9NRD5): below the threshold; pKd (PTPN3, P26045): below the threshold; pKd (RAPGEF6, Q8TEU7): below the threshold; pKd (SIPA1L2, Q9P2F8): below the threshold; pKd (SNTB1, Q13884): below the threshold; pKd (TIAM2, Q8IVF5): below the threshold
PMESGICTIV [TTC24, A2A3L6]	below the threshold	4.79	4.71	below the threshold	3.56	4.29	below the threshold	below the threshold	5.07	4.77	3.88	below the threshold	below the threshold	below the threshold	4.11	below the threshold	4.74	3.56	below the threshold	3.83	pKd (PDLIM1, O00151): below the threshold; pKd (PICK1, Q9NRD5): 4.3; pKd (PTPN3, P26045): 3.75; pKd (RAPGEF6, Q8TEU7): below the threshold; pKd (SIPA1L2, Q9P2F8): below the threshold; pKd (SNTB1, Q13884): 4.58; pKd (TIAM2, Q8IVF5): below the threshold
NVYGTESVKI [GRIA3, P42263]	below the threshold	below the threshold	below the threshold	below the threshold	below the threshold	below the threshold	below the threshold	below the threshold	3.98	4	below the threshold	below the threshold	below the threshold	below the threshold	below the threshold	below the threshold	3.93	below the threshold	below the threshold	3.47	pKd (PDLIM1, O00151): below the threshold; pKd (PICK1, Q9NRD5): below the threshold; pKd (PTPN3, P26045): below the threshold; pKd (RAPGEF6, Q8TEU7): below the threshold; pKd (SIPA1L2, Q9P2F8): below the threshold; pKd (SNTB1, Q13884): below the threshold; pKd (TIAM2, Q8IVF5): below the threshold

Source: article PMC9482650, “Quantitative fragmentomics allow affinity mapping of interactomes” (Nature Communications, 2022)
